Non-standard residues stand in square brackets, D forms with d. βHOAla = beta-homoalanine (β-HOAla), D- or L-form; 4Pal = N[C@@H](Cc1ccncc1)C(=O)O; d(pGlu) = O=C1CC[C@H](C(=O)O)N1; Cha = N[C@@H](CC1CCCCC1)C(=O)O; dIva = CC[C@@](C)(N)C(=O)O; Iva = CC[C@](C)(N)C(=O)O; Nle = CCCC[C@H](N)C(=O)O; Aib = CC(C)(N)C(=O)O
Experiments:
[1] = target: human Y2 receptor (human) (UniProt P49146); assay: RBA: displacement of [125I]-PYY from hY2R/CHO membranes
[2] = target: human Y2 receptor (human) (UniProt P49146); assay: cell-based or functional assay

Sequence of human Y2 receptor (human) (P49146 whole entry): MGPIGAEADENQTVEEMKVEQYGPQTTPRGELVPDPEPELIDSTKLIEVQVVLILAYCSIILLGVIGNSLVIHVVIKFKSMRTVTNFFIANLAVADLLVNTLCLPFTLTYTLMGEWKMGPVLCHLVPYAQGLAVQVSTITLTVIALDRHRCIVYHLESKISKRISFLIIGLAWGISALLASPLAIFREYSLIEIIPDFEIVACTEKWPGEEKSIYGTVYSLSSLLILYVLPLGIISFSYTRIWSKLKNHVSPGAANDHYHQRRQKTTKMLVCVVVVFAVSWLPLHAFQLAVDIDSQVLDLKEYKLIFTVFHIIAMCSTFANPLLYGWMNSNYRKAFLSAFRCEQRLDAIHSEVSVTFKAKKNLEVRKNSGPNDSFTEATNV

IC50 Ratio (IC50 compound/IC50 PYY(3-36)) [1] | GBA EC50 Ratio ([35S]GTPγS binding) (EC50 compound/EC50 PYY(3-36)) [2] | Binder
2.4 | 2.8 | Ac-S[βHOAla]R[4Pal][Cha][Aib]NK[Aib]TRQR[Cha]-NH2 (also: former peak isomer, β-HOAla configuration D or L not assigned) [Ac-[β-HOAla24, Pya(4)26, Cha27,36, Aib28,31, Lys30]-PYY(23-36) former peak]
0.68 | 0.56 | Ac-[dP]R[4Pal][Cha][Aib]NK[Aib]TRQR[Cha]-NH2 (SMILES CC(=O)N1CCC[C@@H]1C(=O)N[C@@H](CCCNC(=N)N)C(=O)N[C@@H](Cc1ccncc1)C(=O)N[C@@H](CC1CCCCC1)C(=O)NC(C)(C)C(=O)N[C@@H](CC(N)=O)C(=O)N[C@@H](CCCCN)C(=O)NC(C)(C)C(=O)N[C@H](C(=O)N[C@@H](CCCNC(=N)N)C(=O)N[C@@H](CCC(N)=O)C(=O)N[C@@H](CCCNC(=N)N)C(=O)N[C@@H](CC1CCCCC1)C(N)=O)[C@@H](C)O) [Ac-[D-Pro24, Pya(4)26, Cha27,36, Aib28,31, Lys30]-PYY(24-36)]
0.39 | 1.3 | Ac-S[dIva]R[4Pal][Cha][Aib]NK[Aib]TRQR[Cha]-NH2 (SMILES CC[C@@](C)(NC(=O)[C@H](CO)NC(C)=O)C(=O)N[C@@H](CCCNC(=N)N)C(=O)N[C@@H](Cc1ccncc1)C(=O)N[C@@H](CC1CCCCC1)C(=O)NC(C)(C)C(=O)N[C@@H](CC(N)=O)C(=O)N[C@@H](CCCCN)C(=O)NC(C)(C)C(=O)N[C@H](C(=O)N[C@@H](CCCNC(=N)N)C(=O)N[C@@H](CCC(N)=O)C(=O)N[C@@H](CCCNC(=N)N)C(=O)N[C@@H](CC1CCCCC1)C(N)=O)[C@@H](C)O) [Ac-[D-Iva24, Pya(4)26, Cha27,36, Aib28,31, Lys30]-PYY(23-36)]
0.85 | 1.9 | Ac-S[βHOAla]R[4Pal][Cha][Aib]NK[Aib]TRQR[Cha]-NH2 (also: later peak isomer, β-HOAla configuration D or L not assigned) [Ac-[β-HOAla24, Pya(4)26, Cha27,36, Aib28,31, Lys30]-PYY(23-36) later peak]
8.8 | 5.2 | Ac-S[dP][Iva]H[Cha][Aib]NK[Aib]TRQR[Cha]-NH2 (SMILES CC[C@](C)(NC(=O)[C@H]1CCCN1C(=O)[C@H](CO)NC(C)=O)C(=O)N[C@@H](Cc1c[nH]cn1)C(=O)N[C@@H](CC1CCCCC1)C(=O)NC(C)(C)C(=O)N[C@@H](CC(N)=O)C(=O)N[C@@H](CCCCN)C(=O)NC(C)(C)C(=O)N[C@H](C(=O)N[C@@H](CCCNC(=N)N)C(=O)N[C@@H](CCC(N)=O)C(=O)N[C@@H](CCCNC(=N)N)C(=O)N[C@@H](CC1CCCCC1)C(N)=O)[C@@H](C)O) [Ac-[D-Pro24, Iva25, Cha27,36, Aib28,31, Lys30]-PYY(23-36)]
3 | 2.4 | Ac-S[dP][Nle][4Pal][Cha][Aib]NK[Aib]TRQR[Cha]-NH2 (SMILES CCCC[C@H](NC(=O)[C@H]1CCCN1C(=O)[C@H](CO)NC(C)=O)C(=O)N[C@@H](Cc1ccncc1)C(=O)N[C@@H](CC1CCCCC1)C(=O)NC(C)(C)C(=O)N[C@@H](CC(N)=O)C(=O)N[C@@H](CCCCN)C(=O)NC(C)(C)C(=O)N[C@H](C(=O)N[C@@H](CCCNC(=N)N)C(=O)N[C@@H](CCC(N)=O)C(=O)N[C@@H](CCCNC(=N)N)C(=O)N[C@@H](CC1CCCCC1)C(N)=O)[C@@H](C)O) [Ac-[D-Pro24, Nle25, Pya(4)26, Cha27,36, Aib28,31, Lys30]-PYY(23-36)]
2 | 1.1 | [d(pGlu)]R[4Pal][Cha][Aib]NK[Aib]TRQR[Cha]-NH2 (SMILES C[C@@H](O)[C@H](NC(=O)C(C)(C)NC(=O)[C@H](CCCCN)NC(=O)[C@H](CC(N)=O)NC(=O)C(C)(C)NC(=O)[C@H](CC1CCCCC1)NC(=O)[C@H](Cc1ccncc1)NC(=O)[C@H](CCCNC(=N)N)NC(=O)[C@H]1CCC(=O)N1)C(=O)N[C@@H](CCCNC(=N)N)C(=O)N[C@@H](CCC(N)=O)C(=O)N[C@@H](CCCNC(=N)N)C(=O)N[C@@H](CC1CCCCC1)C(N)=O) [[D-pGlu24, Pya(4)26, Cha27,36, Aib28,31, Lys30]-PYY(24-36)]
8.4 | 1.7 | Ac-S[dP][Aib][4Pal][Cha][Aib]NK[Aib]TRQR[Cha]-NH2 (SMILES CC(=O)N[C@@H](CO)C(=O)N1CCC[C@@H]1C(=O)NC(C)(C)C(=O)N[C@@H](Cc1ccncc1)C(=O)N[C@@H](CC1CCCCC1)C(=O)NC(C)(C)C(=O)N[C@@H](CC(N)=O)C(=O)N[C@@H](CCCCN)C(=O)NC(C)(C)C(=O)N[C@H](C(=O)N[C@@H](CCCNC(=N)N)C(=O)N[C@@H](CCC(N)=O)C(=O)N[C@@H](CCCNC(=N)N)C(=O)N[C@@H](CC1CCCCC1)C(N)=O)[C@@H](C)O) [Ac-[D-Pro24, Aib25,28,31, Pya(4)26, Cha27,36, Lys30]-PYY(23-36)]
